Test results published in paper PMC6502846.

Assays:
[1] = biological target: C5b-8(C9)n (1 ≤ n < 18) (human) (UniProt P01031); assay: rapid atomic force microscopy imaging; supported bilayers of E. coli lipid extract on mica; proteins injected one after the other in situ without wash steps, 80 nM C5b6, C7 and C8, 1.4 µM C9; 30 °C; 6.5 s per frame; 20 mM HEPES, 120 mM NaCl, pH 7.4; chamber passivated with BSA
[2] = biological target: C5b-8 initiator complex, comprised of C5b6 in complex with C7 and C8 (human) (UniProt P01031); assay: as above

Chain of C9 (P02748 22-559): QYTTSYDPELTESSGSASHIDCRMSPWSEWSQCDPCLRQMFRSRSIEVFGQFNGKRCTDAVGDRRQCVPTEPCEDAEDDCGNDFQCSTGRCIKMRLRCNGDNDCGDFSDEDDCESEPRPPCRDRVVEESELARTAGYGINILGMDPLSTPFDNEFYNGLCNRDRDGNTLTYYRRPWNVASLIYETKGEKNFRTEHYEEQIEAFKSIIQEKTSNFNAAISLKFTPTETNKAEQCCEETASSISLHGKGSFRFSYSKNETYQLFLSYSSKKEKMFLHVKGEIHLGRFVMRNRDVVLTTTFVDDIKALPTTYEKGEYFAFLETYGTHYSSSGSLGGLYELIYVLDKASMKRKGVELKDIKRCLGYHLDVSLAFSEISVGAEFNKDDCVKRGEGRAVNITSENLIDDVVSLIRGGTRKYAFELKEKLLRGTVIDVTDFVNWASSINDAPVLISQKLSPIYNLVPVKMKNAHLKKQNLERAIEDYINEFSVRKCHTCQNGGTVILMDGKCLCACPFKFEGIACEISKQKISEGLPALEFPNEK

**Q.** Which kon [1] does the source give for “C9 (from UniProt P02748 22-559) (natural protein)” here?
**A.** 108000 M⁻¹ s⁻¹

**Q.** What about the τ olig, time to add 17 copies of C9 after the initiation event [1] of the same substance?
**A.** 112 s

**Q.** What about the τ+, average time per addition of each of the remaining 17 C9 subunits [1] of the same substance?
**A.** 6.6 s

**Q.** What about the characteristic initiation time τ init [2] of the same substance?
**A.** 912 s

**Q.** And the kon [2]?
**A.** 780 M⁻¹ s⁻¹
